B1: Speckle-type POZ protein (Homo sapiens), O43791 (parent)
chain: MSRVPSPPPPAEMSSGPVAESWCYTQIKVVKFSYMWTINNFSFCREEMGEVIKSSTFSSGANDKLKWCLRVNPKGLDEESKDYLSLYLLLVSCPKSEVRAKFKFSILNAKGEETKAMESQRAYRFVQGKDWGFKKFIRRDFLLDEANGLLPDDKLTLFCEVSVVQDSVNISGQNTMNMVKVPECRLADELGGLWENSRFTDCCLCVAGQEFQAHKAILAARSPVFSAMFEHEMEESKKNRVEINDVEPEVFKEMMCFIYTGKAPNLDKMADDLLAAADKYALERLKVMCEDALCSNLSVENAAEILILADLHSADQLKTQAVDFINYHASDVLETSGWKSMVVSHPHLVAEAYRSLASAQCPFLGPPRKRLKQS

Variants of: B1
Conditions: with ikba_human NFKBIA

Row | effect of a mutation on the interaction | Variant
1 | with no effect | MSRVPSPPPPAEMSSGPVAESWCYTQIKVVKFSYMWTINNFSFCREEMGEVIKSSTFSSGANDKLKWCLRVNPKGLDEESKDYLSLYLLLVSCPKSEVRAKFKFSILNAKGEETKAMESQRAYRFVQGKDWGVKKFIRRDFLLDEANGLLPDDKLTLFCEVSVVQDSVNISGQNTMNMVKVPECRLADELGGLWENSRFTDCCLCVAGQEFQAHKAILAARSPVFSAMFEHEMEESKKNRVEINDVEPEVFKEMMCFIYTGKAPNLDKMADDLLAAADKYALERLKVMCEDALCSNLSVENAAEILILADLHSADQLKTQAVDFINYHASDVLETSGWKSMVVSHPHLVAEAYRSLASAQCPFLGPPRKRLKQS [F133V]

Variants of: B1
Conditions: with nox1_human NOX1, Q9Y5S8
nox1_human NOX1, Q9Y5S8, sequence (Q9Y5S8 whole entry): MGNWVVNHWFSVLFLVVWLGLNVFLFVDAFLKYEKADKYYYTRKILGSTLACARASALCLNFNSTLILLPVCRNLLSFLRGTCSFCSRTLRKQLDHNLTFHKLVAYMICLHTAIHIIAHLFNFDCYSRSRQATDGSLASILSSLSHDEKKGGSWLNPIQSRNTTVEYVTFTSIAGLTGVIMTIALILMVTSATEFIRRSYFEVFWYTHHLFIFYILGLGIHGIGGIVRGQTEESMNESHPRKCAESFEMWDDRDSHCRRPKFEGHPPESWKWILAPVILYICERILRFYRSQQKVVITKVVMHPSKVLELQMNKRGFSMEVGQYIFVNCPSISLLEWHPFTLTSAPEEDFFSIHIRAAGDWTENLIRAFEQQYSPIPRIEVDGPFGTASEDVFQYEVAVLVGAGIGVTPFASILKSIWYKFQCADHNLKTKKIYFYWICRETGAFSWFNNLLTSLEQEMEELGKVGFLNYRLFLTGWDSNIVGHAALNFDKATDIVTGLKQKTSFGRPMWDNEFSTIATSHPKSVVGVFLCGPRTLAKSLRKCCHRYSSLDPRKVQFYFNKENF

Row | effect of a mutation on the interaction | Variant
2 | with no effect | MSRVPSPPPPAEMSSGPVAESWCYTQIKVVKFSYMWTINNFSFCREEMGEVIKSSTFSSGANDKLKWCLRVNPKGLDEESKDYLSLYLLLVSCPKSEVRAKFKFSILNAKGEETKAMESQRAYRFVQGKDWGVKKFIRRDFLLDEANGLLPDDKLTLFCEVSVVQDSVNISGQNTMNMVKVPECRLADELGGLWENSRFTDCCLCVAGQEFQAHKAILAARSPVFSAMFEHEMEESKKNRVEINDVEPEVFKEMMCFIYTGKAPNLDKMADDLLAAADKYALERLKVMCEDALCSNLSVENAAEILILADLHSADQLKTQAVDFINYHASDVLETSGWKSMVVSHPHLVAEAYRSLASAQCPFLGPPRKRLKQS [F133V]

Variants of: B1
Conditions: with npm_human NPM1, P06748

Row | effect of a mutation on the interaction | Variant
3 | with no effect | MSRVPSPPPPAEMSSGPVAESWCYTQIKVVKFSYMWTINNFSFCREEMGEVIKSSTFSSGANDKLKWCLRVNPKGLDEESKDYLSLYLLLVSCPKSEVRAKFKFSILNAKGEETKAMESQRAYRFVQGKDWGVKKFIRRDFLLDEANGLLPDDKLTLFCEVSVVQDSVNISGQNTMNMVKVPECRLADELGGLWENSRFTDCCLCVAGQEFQAHKAILAARSPVFSAMFEHEMEESKKNRVEINDVEPEVFKEMMCFIYTGKAPNLDKMADDLLAAADKYALERLKVMCEDALCSNLSVENAAEILILADLHSADQLKTQAVDFINYHASDVLETSGWKSMVVSHPHLVAEAYRSLASAQCPFLGPPRKRLKQS [F133V]

Variants of: B1
Conditions: with nsd3_human NSD3, Q9BZ95
nsd3_human NSD3, Q9BZ95, sequence (Q9BZ95 whole entry): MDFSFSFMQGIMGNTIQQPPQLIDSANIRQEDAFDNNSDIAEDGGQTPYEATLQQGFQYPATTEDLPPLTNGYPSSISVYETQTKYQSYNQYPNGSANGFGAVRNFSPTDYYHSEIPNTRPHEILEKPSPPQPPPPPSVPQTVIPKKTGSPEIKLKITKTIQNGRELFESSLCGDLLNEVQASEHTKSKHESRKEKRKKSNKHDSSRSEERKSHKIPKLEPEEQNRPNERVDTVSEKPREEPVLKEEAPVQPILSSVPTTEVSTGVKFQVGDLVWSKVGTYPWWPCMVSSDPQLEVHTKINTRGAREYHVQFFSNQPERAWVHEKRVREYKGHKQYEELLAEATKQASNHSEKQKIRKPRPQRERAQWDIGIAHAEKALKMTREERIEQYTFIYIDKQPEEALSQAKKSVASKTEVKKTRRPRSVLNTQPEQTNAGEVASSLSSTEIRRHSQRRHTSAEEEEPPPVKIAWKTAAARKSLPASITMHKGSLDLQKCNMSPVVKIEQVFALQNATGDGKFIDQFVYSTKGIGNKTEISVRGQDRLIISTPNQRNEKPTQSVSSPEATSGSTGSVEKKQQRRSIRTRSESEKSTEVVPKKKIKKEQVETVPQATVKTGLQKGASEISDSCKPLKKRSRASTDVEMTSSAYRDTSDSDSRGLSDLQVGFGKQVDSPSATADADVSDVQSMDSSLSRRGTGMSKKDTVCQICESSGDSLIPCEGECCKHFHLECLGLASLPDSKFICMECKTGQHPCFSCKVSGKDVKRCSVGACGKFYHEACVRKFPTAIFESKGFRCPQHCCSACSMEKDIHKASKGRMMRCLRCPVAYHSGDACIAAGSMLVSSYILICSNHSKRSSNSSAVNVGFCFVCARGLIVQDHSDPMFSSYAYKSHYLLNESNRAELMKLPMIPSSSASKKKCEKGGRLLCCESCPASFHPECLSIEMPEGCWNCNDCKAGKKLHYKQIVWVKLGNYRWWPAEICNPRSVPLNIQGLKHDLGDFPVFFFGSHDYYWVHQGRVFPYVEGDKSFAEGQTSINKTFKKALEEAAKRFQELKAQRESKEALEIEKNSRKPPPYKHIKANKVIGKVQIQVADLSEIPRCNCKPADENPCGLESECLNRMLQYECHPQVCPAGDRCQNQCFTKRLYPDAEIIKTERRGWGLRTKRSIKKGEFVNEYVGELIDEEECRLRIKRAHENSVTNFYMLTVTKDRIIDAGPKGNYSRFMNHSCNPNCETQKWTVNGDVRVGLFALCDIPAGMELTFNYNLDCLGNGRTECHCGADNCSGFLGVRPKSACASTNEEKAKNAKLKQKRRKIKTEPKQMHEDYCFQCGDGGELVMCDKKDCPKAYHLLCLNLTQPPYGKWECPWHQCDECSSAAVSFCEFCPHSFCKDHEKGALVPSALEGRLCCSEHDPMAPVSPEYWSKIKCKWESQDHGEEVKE

Row | effect of a mutation on the interaction | Variant
4 | with no effect | MSRVPSPPPPAEMSSGPVAESWCYTQIKVVKFSYMWTINNFSFCREEMGEVIKSSTFSSGANDKLKWCLRVNPKGLDEESKDYLSLYLLLVSCPKSEVRAKFKFSILNAKGEETKAMESQRAYRFVQGKDWGVKKFIRRDFLLDEANGLLPDDKLTLFCEVSVVQDSVNISGQNTMNMVKVPECRLADELGGLWENSRFTDCCLCVAGQEFQAHKAILAARSPVFSAMFEHEMEESKKNRVEINDVEPEVFKEMMCFIYTGKAPNLDKMADDLLAAADKYALERLKVMCEDALCSNLSVENAAEILILADLHSADQLKTQAVDFINYHASDVLETSGWKSMVVSHPHLVAEAYRSLASAQCPFLGPPRKRLKQS [F133V]

Variants of: B1
Conditions: with ntrk2_human NTRK2, Q16620

Row | effect of a mutation on the interaction | Variant
5 | with no effect | MSRVPSPPPPAEMSSGPVAESWCYTQIKVVKFSYMWTINNFSFCREEMGEVIKSSTFSSGANDKLKWCLRVNPKGLDEESKDYLSLYLLLVSCPKSEVRAKFKFSILNAKGEETKAMESQRAYRFVQGKDWGVKKFIRRDFLLDEANGLLPDDKLTLFCEVSVVQDSVNISGQNTMNMVKVPECRLADELGGLWENSRFTDCCLCVAGQEFQAHKAILAARSPVFSAMFEHEMEESKKNRVEINDVEPEVFKEMMCFIYTGKAPNLDKMADDLLAAADKYALERLKVMCEDALCSNLSVENAAEILILADLHSADQLKTQAVDFINYHASDVLETSGWKSMVVSHPHLVAEAYRSLASAQCPFLGPPRKRLKQS [F133V]

Variants of: B1
Conditions: with ntrk3_human NTRK3, Q16288

Row | effect of a mutation on the interaction | Variant
6 | with no effect | MSRVPSPPPPAEMSSGPVAESWCYTQIKVVKFSYMWTINNFSFCREEMGEVIKSSTFSSGANDKLKWCLRVNPKGLDEESKDYLSLYLLLVSCPKSEVRAKFKFSILNAKGEETKAMESQRAYRFVQGKDWGVKKFIRRDFLLDEANGLLPDDKLTLFCEVSVVQDSVNISGQNTMNMVKVPECRLADELGGLWENSRFTDCCLCVAGQEFQAHKAILAARSPVFSAMFEHEMEESKKNRVEINDVEPEVFKEMMCFIYTGKAPNLDKMADDLLAAADKYALERLKVMCEDALCSNLSVENAAEILILADLHSADQLKTQAVDFINYHASDVLETSGWKSMVVSHPHLVAEAYRSLASAQCPFLGPPRKRLKQS [F133V]

Variants of: B1
Conditions: with pak3_human PAK3, O75914
pak3_human PAK3, O75914, sequence (O75914 whole entry, looked up): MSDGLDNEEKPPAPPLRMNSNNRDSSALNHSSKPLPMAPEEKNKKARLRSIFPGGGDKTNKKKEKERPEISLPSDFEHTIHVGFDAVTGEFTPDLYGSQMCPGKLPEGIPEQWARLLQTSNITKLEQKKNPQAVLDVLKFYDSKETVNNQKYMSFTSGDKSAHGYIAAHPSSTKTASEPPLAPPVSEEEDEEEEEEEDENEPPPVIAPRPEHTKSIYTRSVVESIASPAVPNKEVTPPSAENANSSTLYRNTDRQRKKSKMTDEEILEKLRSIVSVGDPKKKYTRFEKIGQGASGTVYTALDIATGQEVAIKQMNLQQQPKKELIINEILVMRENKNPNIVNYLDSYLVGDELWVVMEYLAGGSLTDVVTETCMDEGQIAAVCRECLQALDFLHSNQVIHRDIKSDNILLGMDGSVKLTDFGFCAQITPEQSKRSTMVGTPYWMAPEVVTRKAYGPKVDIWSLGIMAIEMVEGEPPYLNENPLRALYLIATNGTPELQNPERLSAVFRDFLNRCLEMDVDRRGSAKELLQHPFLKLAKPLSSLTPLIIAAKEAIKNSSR

Row | effect of a mutation on the interaction | Variant
7 | with no effect | MSRVPSPPPPAEMSSGPVAESWCYTQIKVVKFSYMWTINNFSFCREEMGEVIKSSTFSSGANDKLKWCLRVNPKGLDEESKDYLSLYLLLVSCPKSEVRAKFKFSILNAKGEETKAMESQRAYRFVQGKDWGVKKFIRRDFLLDEANGLLPDDKLTLFCEVSVVQDSVNISGQNTMNMVKVPECRLADELGGLWENSRFTDCCLCVAGQEFQAHKAILAARSPVFSAMFEHEMEESKKNRVEINDVEPEVFKEMMCFIYTGKAPNLDKMADDLLAAADKYALERLKVMCEDALCSNLSVENAAEILILADLHSADQLKTQAVDFINYHASDVLETSGWKSMVVSHPHLVAEAYRSLASAQCPFLGPPRKRLKQS [F133V]

Variants of: B1
Conditions: with prkn_human PRKN

Row | effect of a mutation on the interaction | Variant
8 | with no effect | MSRVPSPPPPAEMSSGPVAESWCYTQIKVVKFSYMWTINNFSFCREEMGEVIKSSTFSSGANDKLKWCLRVNPKGLDEESKDYLSLYLLLVSCPKSEVRAKFKFSILNAKGEETKAMESQRAYRFVQGKDWGVKKFIRRDFLLDEANGLLPDDKLTLFCEVSVVQDSVNISGQNTMNMVKVPECRLADELGGLWENSRFTDCCLCVAGQEFQAHKAILAARSPVFSAMFEHEMEESKKNRVEINDVEPEVFKEMMCFIYTGKAPNLDKMADDLLAAADKYALERLKVMCEDALCSNLSVENAAEILILADLHSADQLKTQAVDFINYHASDVLETSGWKSMVVSHPHLVAEAYRSLASAQCPFLGPPRKRLKQS [F133V]

Variants of: B1
Conditions: with pb1_human PBRM1, Q86U86
pb1_human PBRM1, Q86U86, sequence (Q86U86 whole entry): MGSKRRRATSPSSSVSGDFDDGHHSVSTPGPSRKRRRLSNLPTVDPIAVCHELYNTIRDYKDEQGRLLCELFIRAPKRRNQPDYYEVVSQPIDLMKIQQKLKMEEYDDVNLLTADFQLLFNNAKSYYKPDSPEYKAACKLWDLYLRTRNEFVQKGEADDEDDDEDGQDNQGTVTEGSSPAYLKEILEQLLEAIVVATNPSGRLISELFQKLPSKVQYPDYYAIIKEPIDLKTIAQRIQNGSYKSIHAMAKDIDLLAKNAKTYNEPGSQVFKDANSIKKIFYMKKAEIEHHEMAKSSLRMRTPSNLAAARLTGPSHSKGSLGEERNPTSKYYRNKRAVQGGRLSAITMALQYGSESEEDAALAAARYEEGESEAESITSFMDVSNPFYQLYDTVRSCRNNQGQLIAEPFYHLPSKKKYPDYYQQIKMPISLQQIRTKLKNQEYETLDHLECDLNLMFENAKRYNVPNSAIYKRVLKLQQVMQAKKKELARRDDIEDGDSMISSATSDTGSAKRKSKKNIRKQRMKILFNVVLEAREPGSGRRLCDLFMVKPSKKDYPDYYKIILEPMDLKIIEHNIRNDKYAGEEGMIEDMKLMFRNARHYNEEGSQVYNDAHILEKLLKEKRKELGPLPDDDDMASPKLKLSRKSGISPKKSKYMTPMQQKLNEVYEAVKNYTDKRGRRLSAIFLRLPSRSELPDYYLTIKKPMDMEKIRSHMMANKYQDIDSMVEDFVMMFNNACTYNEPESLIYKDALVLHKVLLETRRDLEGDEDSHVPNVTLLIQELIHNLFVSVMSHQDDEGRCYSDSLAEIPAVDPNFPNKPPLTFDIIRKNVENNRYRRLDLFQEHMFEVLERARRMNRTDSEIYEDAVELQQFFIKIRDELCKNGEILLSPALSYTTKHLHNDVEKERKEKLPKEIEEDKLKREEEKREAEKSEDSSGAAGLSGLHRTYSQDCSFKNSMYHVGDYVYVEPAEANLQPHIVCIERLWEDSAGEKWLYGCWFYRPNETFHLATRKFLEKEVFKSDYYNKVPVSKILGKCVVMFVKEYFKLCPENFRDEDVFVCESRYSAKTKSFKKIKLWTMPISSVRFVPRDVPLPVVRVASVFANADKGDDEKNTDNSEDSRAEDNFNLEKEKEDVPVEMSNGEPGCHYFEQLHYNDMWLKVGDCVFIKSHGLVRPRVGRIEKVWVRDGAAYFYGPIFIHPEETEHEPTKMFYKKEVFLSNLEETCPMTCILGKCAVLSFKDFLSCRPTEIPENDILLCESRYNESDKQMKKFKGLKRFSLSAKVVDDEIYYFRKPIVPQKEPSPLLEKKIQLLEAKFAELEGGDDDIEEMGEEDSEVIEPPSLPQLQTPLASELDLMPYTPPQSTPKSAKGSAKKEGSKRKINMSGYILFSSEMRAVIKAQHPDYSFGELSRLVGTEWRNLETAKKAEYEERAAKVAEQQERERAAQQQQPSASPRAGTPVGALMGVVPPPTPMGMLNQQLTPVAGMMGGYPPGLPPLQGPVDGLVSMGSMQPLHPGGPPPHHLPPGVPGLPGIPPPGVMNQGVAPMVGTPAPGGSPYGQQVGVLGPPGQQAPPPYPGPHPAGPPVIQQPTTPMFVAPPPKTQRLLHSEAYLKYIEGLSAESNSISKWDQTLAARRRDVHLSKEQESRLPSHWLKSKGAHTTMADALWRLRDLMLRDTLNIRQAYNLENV

Row | effect of a mutation on the interaction | Variant
9 | with no effect | MSRVPSPPPPAEMSSGPVAESWCYTQIKVVKFSYMWTINNFSFCREEMGEVIKSSTFSSGANDKLKWCLRVNPKGLDEESKDYLSLYLLLVSCPKSEVRAKFKFSILNAKGEETKAMESQRAYRFVQGKDWGVKKFIRRDFLLDEANGLLPDDKLTLFCEVSVVQDSVNISGQNTMNMVKVPECRLADELGGLWENSRFTDCCLCVAGQEFQAHKAILAARSPVFSAMFEHEMEESKKNRVEINDVEPEVFKEMMCFIYTGKAPNLDKMADDLLAAADKYALERLKVMCEDALCSNLSVENAAEILILADLHSADQLKTQAVDFINYHASDVLETSGWKSMVVSHPHLVAEAYRSLASAQCPFLGPPRKRLKQS [F133V]

Variants of: B1
Conditions: with pcbp1_human PCBP1, Q15365

Row | effect of a mutation on the interaction | Variant
10 | with no effect | MSRVPSPPPPAEMSSGPVAESWCYTQIKVVKFSYMWTINNFSFCREEMGEVIKSSTFSSGANDKLKWCLRVNPKGLDEESKDYLSLYLLLVSCPKSEVRAKFKFSILNAKGEETKAMESQRAYRFVQGKDWGVKKFIRRDFLLDEANGLLPDDKLTLFCEVSVVQDSVNISGQNTMNMVKVPECRLADELGGLWENSRFTDCCLCVAGQEFQAHKAILAARSPVFSAMFEHEMEESKKNRVEINDVEPEVFKEMMCFIYTGKAPNLDKMADDLLAAADKYALERLKVMCEDALCSNLSVENAAEILILADLHSADQLKTQAVDFINYHASDVLETSGWKSMVVSHPHLVAEAYRSLASAQCPFLGPPRKRLKQS [F133V]

Variants of: B1
Conditions: with pdcd1_human PDCD1, Q15116
pdcd1_human PDCD1, Q15116, sequence (Q15116 whole entry): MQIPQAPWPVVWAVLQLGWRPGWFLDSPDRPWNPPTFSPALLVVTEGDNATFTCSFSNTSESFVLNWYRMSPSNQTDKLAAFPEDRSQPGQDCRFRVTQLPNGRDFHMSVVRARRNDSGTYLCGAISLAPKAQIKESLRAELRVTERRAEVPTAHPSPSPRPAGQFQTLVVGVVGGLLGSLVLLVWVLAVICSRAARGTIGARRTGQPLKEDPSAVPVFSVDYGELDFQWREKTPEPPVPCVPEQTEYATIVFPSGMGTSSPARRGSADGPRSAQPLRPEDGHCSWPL

Row | effect of a mutation on the interaction | Variant
11 | with no effect | MSRVPSPPPPAEMSSGPVAESWCYTQIKVVKFSYMWTINNFSFCREEMGEVIKSSTFSSGANDKLKWCLRVNPKGLDEESKDYLSLYLLLVSCPKSEVRAKFKFSILNAKGEETKAMESQRAYRFVQGKDWGVKKFIRRDFLLDEANGLLPDDKLTLFCEVSVVQDSVNISGQNTMNMVKVPECRLADELGGLWENSRFTDCCLCVAGQEFQAHKAILAARSPVFSAMFEHEMEESKKNRVEINDVEPEVFKEMMCFIYTGKAPNLDKMADDLLAAADKYALERLKVMCEDALCSNLSVENAAEILILADLHSADQLKTQAVDFINYHASDVLETSGWKSMVVSHPHLVAEAYRSLASAQCPFLGPPRKRLKQS [F133V]

Variants of: B1
Conditions: with pgfrb_human PDGFRB

Row | effect of a mutation on the interaction | Variant
12 | with no effect | MSRVPSPPPPAEMSSGPVAESWCYTQIKVVKFSYMWTINNFSFCREEMGEVIKSSTFSSGANDKLKWCLRVNPKGLDEESKDYLSLYLLLVSCPKSEVRAKFKFSILNAKGEETKAMESQRAYRFVQGKDWGVKKFIRRDFLLDEANGLLPDDKLTLFCEVSVVQDSVNISGQNTMNMVKVPECRLADELGGLWENSRFTDCCLCVAGQEFQAHKAILAARSPVFSAMFEHEMEESKKNRVEINDVEPEVFKEMMCFIYTGKAPNLDKMADDLLAAADKYALERLKVMCEDALCSNLSVENAAEILILADLHSADQLKTQAVDFINYHASDVLETSGWKSMVVSHPHLVAEAYRSLASAQCPFLGPPRKRLKQS [F133V]

Variants of: B1
Conditions: with pdk1_human PDK1, Q15118
pdk1_human PDK1, Q15118, sequence (Q15118 whole entry, looked up): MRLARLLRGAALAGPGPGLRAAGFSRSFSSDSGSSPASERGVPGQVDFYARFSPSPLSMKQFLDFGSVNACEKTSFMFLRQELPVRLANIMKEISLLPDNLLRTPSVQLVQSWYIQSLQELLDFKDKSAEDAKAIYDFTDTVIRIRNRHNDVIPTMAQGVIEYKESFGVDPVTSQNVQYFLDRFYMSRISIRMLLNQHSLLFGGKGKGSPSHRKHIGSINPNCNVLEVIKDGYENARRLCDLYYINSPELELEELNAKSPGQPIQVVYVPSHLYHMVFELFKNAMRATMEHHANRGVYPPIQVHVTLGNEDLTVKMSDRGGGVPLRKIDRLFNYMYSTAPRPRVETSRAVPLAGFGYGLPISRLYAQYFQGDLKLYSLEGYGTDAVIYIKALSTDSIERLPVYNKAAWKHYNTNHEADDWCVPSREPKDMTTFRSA

Row | effect of a mutation on the interaction | Variant
13 | with no effect | MSRVPSPPPPAEMSSGPVAESWCYTQIKVVKFSYMWTINNFSFCREEMGEVIKSSTFSSGANDKLKWCLRVNPKGLDEESKDYLSLYLLLVSCPKSEVRAKFKFSILNAKGEETKAMESQRAYRFVQGKDWGVKKFIRRDFLLDEANGLLPDDKLTLFCEVSVVQDSVNISGQNTMNMVKVPECRLADELGGLWENSRFTDCCLCVAGQEFQAHKAILAARSPVFSAMFEHEMEESKKNRVEINDVEPEVFKEMMCFIYTGKAPNLDKMADDLLAAADKYALERLKVMCEDALCSNLSVENAAEILILADLHSADQLKTQAVDFINYHASDVLETSGWKSMVVSHPHLVAEAYRSLASAQCPFLGPPRKRLKQS [F133V]

Variants of: B1
Conditions: with pk3ca_human PIK3CA

Row | effect of a mutation on the interaction | Variant
14 | with no effect | MSRVPSPPPPAEMSSGPVAESWCYTQIKVVKFSYMWTINNFSFCREEMGEVIKSSTFSSGANDKLKWCLRVNPKGLDEESKDYLSLYLLLVSCPKSEVRAKFKFSILNAKGEETKAMESQRAYRFVQGKDWGVKKFIRRDFLLDEANGLLPDDKLTLFCEVSVVQDSVNISGQNTMNMVKVPECRLADELGGLWENSRFTDCCLCVAGQEFQAHKAILAARSPVFSAMFEHEMEESKKNRVEINDVEPEVFKEMMCFIYTGKAPNLDKMADDLLAAADKYALERLKVMCEDALCSNLSVENAAEILILADLHSADQLKTQAVDFINYHASDVLETSGWKSMVVSHPHLVAEAYRSLASAQCPFLGPPRKRLKQS [F133V]

Variants of: B1
Conditions: with pk3cb_human PIK3CB

Row | effect of a mutation on the interaction | Variant
15 | with no effect | MSRVPSPPPPAEMSSGPVAESWCYTQIKVVKFSYMWTINNFSFCREEMGEVIKSSTFSSGANDKLKWCLRVNPKGLDEESKDYLSLYLLLVSCPKSEVRAKFKFSILNAKGEETKAMESQRAYRFVQGKDWGVKKFIRRDFLLDEANGLLPDDKLTLFCEVSVVQDSVNISGQNTMNMVKVPECRLADELGGLWENSRFTDCCLCVAGQEFQAHKAILAARSPVFSAMFEHEMEESKKNRVEINDVEPEVFKEMMCFIYTGKAPNLDKMADDLLAAADKYALERLKVMCEDALCSNLSVENAAEILILADLHSADQLKTQAVDFINYHASDVLETSGWKSMVVSHPHLVAEAYRSLASAQCPFLGPPRKRLKQS [F133V]

From IntAct's records for PubMed 35512704
